Results as given in patent US20150140000A1 (INNATE PHARMA, published 2015).
Where a chain is given by its changes, count along the chain named. One block for each binder: values may come before it.

Tests used:
[1] = target: wild-type human TLR3 ECD-CD32 construct (V5-TLR3-CD32) on HEK293T cells (human); experiment: flow cytometry, 293T cells expressing TLR3/CD32 solely at the surface, neutral pH
Protocol: Following two wash cycles, cell MFI was analyzed on a FACS Canto II cytometer.

[2] = target: T1, recombinant human His-tagged TLR3 extracellular domain protein (human, UniProt O15455 24-704); experiment: SPR (Biacore T100), bivalent affinity, TLR3-His immobilized, pH 5.6; pH 5.6
T1 construct: Bought protein; also called TLR3-His; recombinant human TLR3; not shown: His tag

[3] = target: T1, recombinant human His-tagged TLR3 …; experiment: SPR (Biacore T100), bivalent affinity, TLR3-His immobilized, pH 7.2; pH 7.2
Protocol: For bivalent affinity measurement, unless indicated otherwise, TLR3-His protein was immobilized on a Sensor Chip CM5 (carboxymethylated dextran layer) by amine coupling. […] The resulting sensorgrams were analysed by global fitting using the appropriate model.
Binding to TLR3 at neutral (pH 7.2) and acid (pH 5.6) conditions, and KD values were calculated.

EC50 [1]: 0.021 µg/mL
B1: antibody 7G11 (antibody, V domains shown)
VH: EVQLQQYGAELGKPGTSVKLSCKVSGYNITYTYMHWVNQRPGKGLEWIGRIDPANGNTIYGEKFKNKATLTADTSSNTAYMQLSQLKSDDTAIYFCAMGEFDYFDHWGQGVMVTVSS
VL: DIQMTQSPASLSASLGETVSIECLASEDISNDLAWYQQKSGKSPQVLIYAASRLEDGVPSRFSGSGSGTRYSLKISGMQPEDEADYFCQQSYKYPVTFGSGTKLEIK
notes: Rat monoclonal from LOU/c immunization #2; also called clone 7G11

EC50 [1]: 0.026 µg/mL
B2: antibody 31F6 (antibody, V domains shown)
VH: EVQLQQSGAELGKPGTSVKLSCKVSGYNIRYTYMHWVNQRPGKGLEWIGRIDPANGDSIYGEDFKTKATLTADTSSNTAYMQLSQLKSDDTAIYFCAMGEFDYFDYWGQGVMVTVSSASTK
VL: B1 VL with A9P, D28G, K39R, V46L, E55Q, S91N, V96L
notes: Rat monoclonal from LOU/c immunization #2; also called clone 31F6

EC50 [1]: 0.037 µg/mL
B3: antibody 32C4 (antibody, V domains shown)
VH: EVQLQQYGAELGKPGTSVKLSCKVSGYNIWSTYIYWVNQRPGKGLEWIGRIDPANGNTIYAEKFKTKATLTADTSSNTAYMQLSQLKSDDTAIYFCAMGDHGGYVMDAWGQGASVTVSS
VL: DIQMTQSPGSLSASLGETVSIECLASEDIYSYLAWYQQKPGKSPQLLIYAANRLEDGVPSRFSGSGSGTQYSLKISGMQPEDEGDYFCLQGSEFPYTFGTGTKLELK
notes: Rat monoclonal from LOU/c immunization #2; also called clone 32C4

Kd [2]: 1 nM
Kd [3]: 0.0875 nM
EC50 [1]: 0.016 µg/mL
B4: antibody 11E1 (antibody, V domains shown)
VH: QVQLQQPGAELVRPGASVKLSCKASGYTFTNYWMNWVKQRPGQGLEWIGMIDPSDSETHYNQMFKDKATLTVDKSSSTAYMQLSSLTSEDSAVYYCARGGASSDYYYFDYWGQGTTLTVSSASTK
VL: ETTVTQSPASLSMAIGEKVTIRCITSTDIHDDINWYQQKPGEPPKLLISEGNTLRPGVPSRFSSSGYGTDFVFTIENMLSEDVADYYCLQSDNLPRTFGGGTKLEIKRT
notes: Mouse monoclonal from Balb/c immunization #1; also called clone 11E1
